Measured values taken from publication PMC3457783.

Target: TRα1PV (mutated thyroid hormone receptor α1 carrying the PV mutation) (UniProt P10827)
Experiment: co-IP

In the case of “nuclear receptor corepressor, NCoR1 (from UniProt Q60974 1-2453) (natural protein)”, the fold NCoR1 co-precipitated relative to TRβ1PV (before induction) is reported as 1.6 fold and the fold NCoR1 co-precipitated relative to TRβ1PV (day 6 after induction) is reported as 2 fold.
